Target: native CA lattice tubes (HIV-1, UniProt P12493 133-363)
Experiment: filter binding

B1: CA15-2 (1-104) (structured_RNA)
RNA: GGAAGAAGAGAAUCAUACACAAGAUCGACGUACCUCAGGGUGGUGUAUGACUGAGGUGAAGACUGUGAACCAUGGCAUGCGGGCAUAAGGUAGGUAAGUCCAUA
B1: binds.
